In assay [1] the target is human chemokine (C-C motif) receptor 8 (CCR8) (human) (UniProt P51685). In words: flow cytometry, human PBMC, CD3+ gate; % cells stained by PE-L263G8 after isotype control block.
Assay [2] addresses T1, human chemokine (C-C motif) receptor 8 (CCR8) (human, UniProt P51685 1-355).
T1 construct: also called hCCR8
In words: flow cytometry blocking, human PBMC, CD3+ gate; % cells stained by competitor PE-L263G8 after block. How it is done:
(§1) For blocking studies, 100 μL of the cell suspension were incubated with 10 μg purified isotype control, AB1, AB2, AB3, AB4, AB5, AB8, AB9, AB10, AB11, AB12, AB13, AB14, AB15, and Commercial ABI antibodies, or isotype control, as blocking agents.
(§2) After incubation with the blocking agent, the cells were incubated with 0.25 μg of the indicated PE-conjugated antibody plus anti-human CD4 APC or anti-human CD3 for another 15 minutes in the dark and then washed 2 times with Cell Staining Buffer, and acquired in a FACSCanto II flow cytometer (BD Biosciences); the data was analyzed using FCS Express (De Novo Software); MFI correspond to the CCR8+ CD4+ lymphocytes or CCR8+ CD3+ lymphocytes.
(Flow cytometry measures light scatter and fluorescence of single cells or particles in a stream.)

The target of assay [3] is T1, human chemokine (C-C motif) receptor 8 …. In words: flow cytometry blocking, human PBMC, CD3+ gate; % cells stained by competitor PE-AB14 after block. How it is done:
as §1, §2

For assay [4] the target is unchanged. In words: flow cytometry blocking, human PBMC, CD3+ gate; % cells stained by competitor PE-AB5 after block. How it is done:
as §1, §2

Assay [5] has the same target. In words: flow cytometry blocking, human PBMC, CD3+ gate; competitor PE-AB14. How it is done:
as §1, §2
(§3) Percentage original MFI was calculated by dividing the MFI of samples blocked with AB1, AB2, AB3, AB4, AB5, AB6, AB7, AB8, AB9, AB10, AB11, AB12, AB13, AB14, AB15, and Commercial ABI antibodies, by the MFI of samples blocked with the corresponding isotype control. This value was subtracted from 100 to get a blocking percentage. The formula is shown below: […]

Assay [6] shares this target. In words: flow cytometry blocking, human PBMC, CD3+ gate; % cells stained by competitor PE-AB7 after block. On the procedure:
as §1, §2

Assay [7] has the same target. In words: flow cytometry blocking, human PBMC, CD3+ gate; competitor PE-AB6. How it is done: as §1, §2, §3
The target is the same in assay [8]. In words: flow cytometry blocking, human PBMC, CD3+ gate; % cells stained by competitor PE-AB6 after block. On the procedure: as §1, §2
Assay [9] has the same target. In words: flow cytometry blocking, human PBMC, CD3+ gate; competitor PE-AB11. On the procedure:
as §1, §2, §3

For assay [10] the target is unchanged. In words: flow cytometry blocking, human PBMC, CD3+ gate; competitor PE-AB13. How it is done: as §1, §2, §3
The target is the same in assay [11]. In words: flow cytometry blocking, human PBMC, CD3+ gate; competitor PE-AB15. On the procedure:
as §1, §2, §3

Assay [12] shares this target. In words: flow cytometry blocking, human PBMC, CD3+ gate; competitor PE-AB10. How it is done: as §1, §2, §3
For assay [13] the target is unchanged. In words: flow cytometry blocking, human PBMC, CD3+ gate; % cells stained by competitor PE-AB12 after block. How it is done: as §1, §2
Assay [14] has the same target. In words: flow cytometry blocking, human PBMC, CD3+ gate; competitor PE-AB7. How it is done:
as §1, §2, §3

Assay [15] has the same target. In words: flow cytometry blocking, human PBMC, CD3+ gate; % cells stained by competitor PE-433H after block. On the procedure:
as §1, §2

Assay [16] has the same target. In words: flow cytometry blocking, human PBMC, CD3+ gate; competitor PE-433H.
For assay [17] the target is unchanged. In words: flow cytometry blocking, human PBMC, CD3+ gate; % cells stained by competitor PE-AB13 after block. How it is done: as §1, §2
The target is the same in assay [18]. In words: flow cytometry blocking, human PBMC, CD3+ gate; competitor PE-AB5. On the procedure:
as §1, §2, §3

The target is the same in assay [19]. In words: flow cytometry blocking, human PBMC, CD3+ gate; % cells stained by competitor PE-AB8 after block. How it is done:
as §1, §2

Assay [20] shares this target. In words: flow cytometry blocking, human PBMC, CD3+ gate; competitor PE-L263G8.
Assay [21] shares this target. In words: flow cytometry blocking, human PBMC, CD3+ gate; % cells stained by competitor PE-AB11 after block. On the procedure: as §1, §2
The target is the same in assay [22]. In words: flow cytometry blocking, human PBMC, CD3+ gate; % cells stained by competitor PE-AB15 after block. How it is done:
as §1, §2

For assay [23] the target is unchanged. In words: flow cytometry blocking, human PBMC, CD3+ gate; % cells stained by competitor PE-AB10 after block. On the procedure: as §1, §2
For assay [24] the target is unchanged. In words: flow cytometry blocking, human PBMC, CD3+ gate; competitor PE-AB12. On the procedure: as §1, §2, §3
Assay [25] has the same target. In words: flow cytometry blocking, human PBMC, CD3+ gate; competitor PE-AB8. On the procedure:
as §1, §2, §3

The target in assay [26] is human chemokine (C-C motif) receptor 8 (CCR8) (human) (UniProt P51685). In words: flow cytometry, human PBMC, CD3+ gate; % cells stained by PE-433H after isotype control block.

T1 sequence (P51685 whole entry): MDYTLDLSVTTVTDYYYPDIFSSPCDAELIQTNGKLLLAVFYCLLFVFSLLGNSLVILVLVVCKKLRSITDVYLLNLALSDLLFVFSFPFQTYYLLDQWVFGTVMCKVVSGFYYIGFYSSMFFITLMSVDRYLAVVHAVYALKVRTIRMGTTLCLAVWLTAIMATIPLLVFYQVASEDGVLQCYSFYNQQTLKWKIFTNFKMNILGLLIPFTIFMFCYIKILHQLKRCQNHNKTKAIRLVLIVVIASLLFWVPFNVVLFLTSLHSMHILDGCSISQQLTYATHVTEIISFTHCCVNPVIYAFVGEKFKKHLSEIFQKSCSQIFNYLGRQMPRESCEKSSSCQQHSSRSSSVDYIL
human chemokine (C-C motif) receptor 8 (CCR8) (human), sequence (P51685 whole entry): as above

In assay [1], “Commercial L263G8 anti-human CCR8 antibody” showed a % Positive cells of 5.87%.

B1: anti-CCR8 monoclonal antibody AB13 (antibody, V domains shown)
VH: EVQLVETGGGLVQPKGSLKLSCAASGFTFNAYAMNWVRQAPGKGLEWVARIRTKSNNYATYYADSVKDRFTISRDDSQTMLYLQMNNLKTEDTAMYYCVRDRATVTTGRAMDYWGQGTSVTVSS
VL: DIVMTQAAPSLPVTPGESVSISCRSSKSLLHSNGNTYLYWFLQRAGQSPQLLIYRMSNLASGVPDRFSGSGSGTAFTLRISRVEAEDVGVYYCMQHLEYPFTFGSGTKLEIK
notes: Hybridoma monoclonal; also called antibody 13; clone 13
As for B1, the “% Positive cells” value in [2] is 4.68%; in assay [3] it was 4.32%; in assay [4], 8.39%; in assay [6] it was 6.34%; in assay [8] it was 8.62%; in [13], 6%. Further, the “% Positive cells” value was determined as 6.58% in assay [15]; 4.34% in assay [17]; 6.32% in assay [19]; 6.96% in [21]; 3.52% in [22]; 6.19% in assay [23]. Moreover, the “% Blocking” value in assay [5] was 39.4%; in [7], -4.11%; in assay [9], 0.85%; in assay [10] it was 34.7%; in assay [11], 46.5%; in [12] it was -2.65%. Besides, the “% Blocking” value in assay [14] was 30.3%; in assay [16], 6.93%; in assay [18], -1.21%; in [20], 20.3%; in [24], 20.3%; in [25] it was 25.3%.

B2: Commercial 433H anti-human CCR8 antibody (antibody, from another filing, V domains shown)
VH: EVQLVETGGGLVQPKGSLRLSCAASGFPFNTFAMNWVRQAPGKGLEWLARIRSKSNNYATYYADSVKDRFTISRDDSRRMLYLLMNNVKFEDTAIYYCVRGKENNYGYAMDYWGQGTSVTVSS
VL: DIVMTQAAPSVPVTPGESVSISCRSSQSLLHSNGNTYLYWFLQRPGQSPQLLIYRMSNLASGVPDRFSGSGSGTAFTLRISRVEAEDVGVYYCMQHLEYPFTFGIGTKLELKR
B2 displayed a % Positive cells in [26] of 7.07%.
